Source: publication doi:10.1101/2025.06.10.658772 (bioRxiv, 2025)

Columns and labels:
[1] = target: T1, C-terminally large NanoLuc fragment (LgBiT)-fused Dr-GPR25 (zebrafish (Danio rerio), UniProt A0AC58GT18 1-377); assay: cell-based or functional assay
T1 sequence: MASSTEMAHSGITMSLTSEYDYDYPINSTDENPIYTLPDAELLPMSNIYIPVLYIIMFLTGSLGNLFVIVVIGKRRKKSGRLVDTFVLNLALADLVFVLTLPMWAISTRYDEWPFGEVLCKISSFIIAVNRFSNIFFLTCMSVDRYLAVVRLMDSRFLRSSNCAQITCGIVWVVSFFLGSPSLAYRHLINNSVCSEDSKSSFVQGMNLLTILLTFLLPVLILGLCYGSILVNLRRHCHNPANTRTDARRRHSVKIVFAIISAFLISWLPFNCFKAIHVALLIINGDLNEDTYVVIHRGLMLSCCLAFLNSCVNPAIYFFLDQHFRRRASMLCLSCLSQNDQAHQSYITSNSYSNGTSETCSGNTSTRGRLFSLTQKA

[2] = target: T2, C-terminally LgBiT-fused Lc-GPR25 (coelacanth (Latimeria chalumnae), UniProt H3AQL3 1-365); assay: cell-based or functional assay
T2 sequence: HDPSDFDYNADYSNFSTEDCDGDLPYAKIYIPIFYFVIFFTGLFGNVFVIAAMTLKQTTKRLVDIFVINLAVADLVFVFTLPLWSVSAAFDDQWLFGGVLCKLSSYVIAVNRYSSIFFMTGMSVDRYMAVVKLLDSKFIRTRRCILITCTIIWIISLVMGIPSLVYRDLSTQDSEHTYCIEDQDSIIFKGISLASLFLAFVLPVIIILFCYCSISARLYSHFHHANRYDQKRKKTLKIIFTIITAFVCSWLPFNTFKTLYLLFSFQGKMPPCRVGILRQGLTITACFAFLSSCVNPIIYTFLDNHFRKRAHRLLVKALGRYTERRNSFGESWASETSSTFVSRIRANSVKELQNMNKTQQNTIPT

B1: N-terminally 6×His-tagged wild-type (WT) human CXCL17 (ligand)
chain: SSLNPGVARGHRDRGQASRRWLQEGGQECECKDWFLRAPRRKFMTVSGLPKKQCPCDHFKGNVKKTRHQRHHRKPNKHSRACQQFLKQCQLRSFALPL
NanoBiT-based β-arrestin recruitment (SmBiT-ARRB2), EC50 of the dose curve [1]: ~60 nM | NanoBiT-based β-arrestin recruitment (SmBiT-ARRB2), maximal effect [1]: ~5 fold over background | NanoBiT-based β-arrestin recruitment (SmBiT-ARRB2), EC50 of the dose curve [2]: ~300 nM | NanoBiT-based β-arrestin recruitment (SmBiT-ARRB2), maximal effect [2]: ~3 fold over background
